Source: patent publication US7371842B2, “Polynucleotide encoding a 35 KDA protein thats binds to WF00144” (Astellas Pharma Inc., priority 2002, dated 2008)

Assay: Aldol cleavage reaction of fructose 1,6-bisphosphate, coupled with TIM/G3PDH, NADH 340 nm
Type: biochemical
Conditions: F1,6P2 cleaved, 37° C., 30 minutes, pH 8.0
Description: The aldolase activity of the human 35 kd protein was determined as follows, according to the method described in a reference (Novel Biochemistry Experiment Lectures, Vol. 15, Metabolism Abnormality, p. 111, edit. Biochemical Society of Japan, publish. Tokyo Kagaku Dojin-sha, Sep. 22, 1992):
Conjugated with triose phosphate isomerase (TIM) and glycerol 3-phosphate dehydrogenase (G3PDH), the aldol cleavage reaction of fructose 1,6-bisphosphate (F1, 6P2) with the 35 kd protein was determined with NADH.
A reaction liquid having the composition mentioned below was prepared, and reacted at 37° C. for 30 minutes. The enzymatic reaction was monitored through the reduction in the 340 nm absorbance owing to the oxidation of NADH in the reaction liquid. The enzymatic reaction was indicated by the number of mols of F1, 6P2, per mg of the protein, cleaved within 1 minute (μmol/min/mg protein).
Reaction liquid 200 μl: 0.25 mM tris HCl buffer (pH 8.0), 0.15 M NaCl, 0.5 mM F1, 6P2 (from Sigma), human 35 kd protein, human liver TIM (500 μg/ml), rabbit skeletal muscle G3PDH (8 units/ml, from Sigma), 0.3 mM NADH (from Nakarai).
For comparison, a commercial product aldolase, Sigma's rabbit skeletal muscle aldolase (A-type aldolase), and an enzyme-free system were tested in the same manner.

B1: Human 35 kd protein: novel 35 kd protein, amino acid sequence SEQ ID NO: 2, expressed in E. coli and purified (protein, listed as Homo sapiens)
chain: MLGPQVWSSVRQGLSRSLSRNVGVWASGEGKKVDIAGIYPPVTTPFTATAEVDYGKLEENLHKLGTFPFRGFVVQGSNGEFPFLTSSERLEVVSRVRQAMPKNRLLLAGSGCESTQATVEMTVSMAQVGADAAMVVTPCYYRGRMSSAALIHHYTKVADLSPIPVVLYSVPANTGLDLPVDAVVTLSQHPNIVGMKDSGGDVTRIGLIVHKTRKQDFQVLAGSAGFLMASYALGAVGGVCALANVLGAQVCQLERLCCTGQWEDAQKLQHRLIEPNAAVTRRFGIPGLKKIMDWFGYYGGPCRAPLQELSPAEEEALRMDFTSNGWL
Aldolase Activity (μmol/min/mg protein): 0.0034 μmol/min/mg protein
